Laboratory results: article PMC11708034

Tests used:
[1] = target: CDTb heptamer (Clostridioides difficile) (UniProt O32739); assay: cryo-EM structure
[2] = target: biotinylated CDTb oligomers (Clostridioides difficile) (UniProt O32739); assay: BLI; […]; 20 mM HEPES pH 8.0, 100 mM NaCl, […]; 5 min association, 10 min dissociation; […]
[3] = target: biotinylated CDTb oligomers (Clostridioides difficile) (UniProt O32739); assay: BLI; biotinylated CDTb oligomers saturated on streptavidin biosensors (Octet Red 96e); CDTa 200 to 0.032 nM in solution; 20 mM HEPES pH 8.0, 100 mM NaCl, blocked with 0.01% Igepal CA-630 and 0.1% BSA; 5 min association, 10 min dissociation; kON from the slope of kobs against concentration, KD from the signal at equilibrium (sigmoidal dose-response fit)

Molecule	stoichiometry N [1]	Kd [2] [nM]	kon [2] [M⁻¹ s⁻¹]	Kd [3] [nM]	kon [3] [M⁻¹ s⁻¹]
CDTb heptamer (from UniProt O32739 45-876) (complex)	7				
CDTa_(67-463) (domain or fragment) KEWERKEAERIEQKLERSEKEALESYKKDSVEISKYSQTRNYFYDYQIEANSREKEYKELRNAISKNKIDKPMYVYYFESPEKFAFNKVIRTENQNEISLEKFNEFKETIQNKLFKQDGFKDISLYEPGKGDEKPTPLLMHLKLPRNTGMLPYTNTNNVSTLIEQGYSIKIDKIVRIVIDGKHYIKAEASVVSSLDFKDDVSKGDSWGKANYNDWSNKLTPNELADVNDYMRGGYTAINNYLISNGPVNNPNPELDSKITNIENALKREPIPTNLTVYRRSGPQEFGLTLTSPEYDFNKLENIDAFKSKWEGQALSYPNFISTSIGSVNMSAFAKRKIVLRITIPKGSPGAYLSAIPGYAGEYEVLLNHGSKFKINKIDSYKDGTITKLIVDATLIP		18.5	400000		
CDTa_(50-463) (domain or fragment) KAPIERPEDFLKDKEKAKEWERKEAERIEQKLERSEKEALESYKKDSVEISKYSQTRNYFYDYQIEANSREKEYKELRNAISKNKIDKPMYVYYFESPEKFAFNKVIRTENQNEISLEKFNEFKETIQNKLFKQDGFKDISLYEPGKGDEKPTPLLMHLKLPRNTGMLPYTNTNNVSTLIEQGYSIKIDKIVRIVIDGKHYIKAEASVVSSLDFKDDVSKGDSWGKANYNDWSNKLTPNELADVNDYMRGGYTAINNYLISNGPVNNPNPELDSKITNIENALKREPIPTNLTVYRRSGPQEFGLTLTSPEYDFNKLENIDAFKSKWEGQALSYPNFISTSIGSVNMSAFAKRKIVLRITIPKGSPGAYLSAIPGYAGEYEVLLNHGSKFKINKIDSYKDGTITKLIVDATLIP		5.7	1.4e+06		
CDTa_(40-463) (domain or fragment) YSEKVCNTTYKAPIERPEDFLKDKEKAKEWERKEAERIEQKLERSEKEALESYKKDSVEISKYSQTRNYFYDYQIEANSREKEYKELRNAISKNKIDKPMYVYYFESPEKFAFNKVIRTENQNEISLEKFNEFKETIQNKLFKQDGFKDISLYEPGKGDEKPTPLLMHLKLPRNTGMLPYTNTNNVSTLIEQGYSIKIDKIVRIVIDGKHYIKAEASVVSSLDFKDDVSKGDSWGKANYNDWSNKLTPNELADVNDYMRGGYTAINNYLISNGPVNNPNPELDSKITNIENALKREPIPTNLTVYRRSGPQEFGLTLTSPEYDFNKLENIDAFKSKWEGQALSYPNFISTSIGSVNMSAFAKRKIVLRITIPKGSPGAYLSAIPGYAGEYEVLLNHGSKFKINKIDSYKDGTITKLIVDATLIP				9	1.2e+06
CDTa_(60-463) (domain or fragment) LKDKEKAKEWERKEAERIEQKLERSEKEALESYKKDSVEISKYSQTRNYFYDYQIEANSREKEYKELRNAISKNKIDKPMYVYYFESPEKFAFNKVIRTENQNEISLEKFNEFKETIQNKLFKQDGFKDISLYEPGKGDEKPTPLLMHLKLPRNTGMLPYTNTNNVSTLIEQGYSIKIDKIVRIVIDGKHYIKAEASVVSSLDFKDDVSKGDSWGKANYNDWSNKLTPNELADVNDYMRGGYTAINNYLISNGPVNNPNPELDSKITNIENALKREPIPTNLTVYRRSGPQEFGLTLTSPEYDFNKLENIDAFKSKWEGQALSYPNFISTSIGSVNMSAFAKRKIVLRITIPKGSPGAYLSAIPGYAGEYEVLLNHGSKFKINKIDSYKDGTITKLIVDATLIP				9.5	800000
